Measurements as given in the supplement of paper PMC12042874.
± gives the uncertainty stated by the source.

Experiment: amyloid nucleation score (Sup35N fusion, yeast selection) (log enrichment); library NNK1; higher = more nucleation; inactive = no reads after selection
Method in brief: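 Random libraries were run with three technical output replicates. In each, psi-negative yeast expressing Sup35N fused to peptides of 20 random codons were induced 24 hours with 100 μM copper sulfate and grown 7 days at 30°C on medium lacking adenine and uracil, and input and output plasmid inserts were Illumina-sequenced. The nucleation score is the DiMSum log enrichment of output over input reads, centred on the mode score of non-aggregating sequences, and sequences under 100 input reads were excluded.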

Substance	amyloid nucleation score
FWRMTFQRHEKLSHQ	-0.28 ± 0.38
YSNWTVSTSFSNHERHVFLA	0.839 ± 0.39
FGTFCMGRPYRYYGCNGGFR	0.674 ± 0.35
CCDVHGCVGNMLSFTGILLF	3.54 ± 0.076
AGSEVFEK	0.073 ± 0.32
FFVLKGECVGGLMPWTRVTA	-0.24 ± 0.92
FGYNILYINQSTWLLNFCQV	6.56 ± 0.049
AIFNTGNMWDTLRRHSGVHV	-0.059 ± 1.2
LFIVTFSYFLSPRLVQWYAL	0.516 ± 0.67
RYVCTESESVDLSQMAVIMS	1.13 ± 0.4
KFIIAGNLNQKSTSWV	2.23 ± 0.086
QPLLTQQK	0.086 ± 0.28
FLMWMWLVSNRKHWLFTDKV	-2.54 ± 2.7
TSQTMTCWGSAL	0.93 ± 0.4
ILTDTSMGTSAVHRARQTLK	0.066 ± 0.48
KPYIFYFINVYCEA	5.917 ± 0.056
LSSNSYQDVSVCQGFLFFVA	3.36 ± 0.15
GSCSYSYCTNFVRTMYGAYG	0.379 ± 0.71
YSFRGEHSTLCLDNVVKSFQ	inactive
YQSHLAIFFRDGHRSSKITN	-0.008 ± 1.2
LVAYVTRRFVLCM	-1.42 ± 1.8
HVLMLNW	3.05 ± 0.084
LVLGSSLWAGCCDQPHGWQV	-0.211 ± 0.54
NHHLRPEMQEVCHL	0.482 ± 0.67
LVLHNVDELYINSSHF	0.77 ± 0.5

Substance	amyloid nucleation score
GRGTGAVFVYVEWSLYGN	-0.036 ± 0.47
LEKINQVSGLDFRRIEFEPS	-0.172 ± 1.2
LDVCCEYPSKSSVMEWQVWL	1.02 ± 0.54
SCTYSIFCDNISRTLGH	-0.287 ± 0.26
LYGLLAGIMSCHWLSWIACK	-0.96 ± 2.7
HRTDRCVVMLHWPWIF	-0.025 ± 0.56
MLSVRTGISGLQSVRTKALA	-0.33 ± 0.51
NDRLFLHGARKLTVLIFVVG	-0.015 ± 0.3
SNIWSSKKINTCLGM	1.7 ± 0.16
GYEHVKG	-0.195 ± 0.46
FDFACCTTGIGPFSCDLGSG	7.694 ± 0.052
KCYTMHWPGS	-1.07 ± 1.7
HMNRVSGVMVVLSRGLAGMN	2.67 ± 0.23
YISKSCRWSRTASSNVCIFI	0.022 ± 0.33
YVNFLGLLDCEL	-0.028 ± 0.48
AGYAYSGIVAGAYWIFCNYE	1.12 ± 0.85
HESYVVRIYIFEDRRYLCEV	0.037 ± 0.6
NMCNLSFLQ	0.104 ± 1.1
ECQCFDQICEQLNSYRDQFS	0.105 ± 0.97
CRCMLSLLRIRLGVSSARLG	0.143 ± 0.49
TEDDYYSGLRRGKDKEGCSF	-0.084 ± 0.44
ELCAQYVIFSFASSRSYDSY	0.579 ± 0.28
LLGIEFTSDLLPIPSISPNE	0.239 ± 0.63
DYDRTSFFEDSFVTD	-0.7 ± 1.1
CCGGECLRVYRIMLGTVECT	0.329 ± 0.28

Substance	amyloid nucleation score
WQTSSNGLSLKATCLTYKSF	0.016 ± 1.7
TFYLSRDIRLYFSWN	7.83 ± 0.049
DSGLSAMGMELRCYEYLVSW	0.886 ± 1.1
FMGVINGEITLVNSFVTYMR	7.768 ± 0.051
LLNEDYTGHSCDPEGEDTR	0.589 ± 0.52
VKSRYLFRCSLLFEHDTGIC	0.01 ± 0.23
GFSKMLLAIVSIQDKGSWDA	2.41 ± 0.17
ARVNVWAVGWSENNSNLKI	0.916 ± 0.24
DDKIVRIEDSMAASNIAFLA	0.371 ± 0.32
YRCCFLKNNPAWVQFSLRLR	-0.436 ± 0.36
RFANMLNVFENV	-0.179 ± 0.26
PAVAGEWNARMGWEATRYKA	0.669 ± 0.56
PGCIICRVMTEANSRCLVRA	0.141 ± 1.2
LDFIKWAYNWCRLIVGIGGC	-0.476 ± 1.9
GHGALSCMMNFHSTGGKVKS	0.667 ± 0.68
RDIILGVLDRCSHCKNRALI	0.223 ± 0.62
NSVVRVIKRSWRTVVLLHDR	-0.621 ± 1.4
FCNLYGKQTYLSGFGIHCVV	0.127 ± 0.23
LLMVREDRRRFRSFGS	0.773 ± 0.76
KWEYCCLFMLAHVEDHLKGF	0.59 ± 0.34
TSPCYWNCI	inactive
SVNRLTLKPSYAKYRVYSGH	0.46 ± 0.68
FGMWYSVRISTSLVYVMGVL	-0.23 ± 0.28
YEFTYLWNNKVLLGLCCYGG	4 ± 0.13
NELNLYGSEFAFYWVDKLCH	4.13 ± 0.073

Substance	amyloid nucleation score
SGTTRWCRGGV	0.127 ± 0.74
PSSHWIAPNFVVN	inactive
NFKQGNSYVCNSCLGCGVSR	6.45 ± 0.084
GGGGNVGGFFMWCSVYSAGV	-0.105 ± 0.96
GLRKYVKPVYSMCVFFLKWA	1.02 ± 0.58
TSWFAFANWVLPSFHYTPVP	0.43 ± 0.43
WSWRLPGPCLFFCAEEQLTK	1.32 ± 0.84
VSKSYPIPCISKVS	0.336 ± 0.52
WLRRCEGGKMSYSSLSTVES	-0.563 ± 0.45
DCRMFDFLA	-0.444 ± 0.38
FWSVYKT	0.744 ± 0.27
SYCYKDGWELVLEYLFVNCT	1.21 ± 0.45
CRLISCDRFRSTRSKG	0.016 ± 0.52
KAFRMLGGFNSYRNFNIILK	3.96 ± 0.079
TSCSVSLVWLFLGVRLCVLC	-0.009 ± 0.24
FNLSVKAY	-0.581 ± 1.6
YTINPRKIRGTPPPIPCRVQ	0.16 ± 0.73
QCDRILSDLYNCSGYNRNTK	-0.522 ± 0.74
YDWNNLDVLLHCLFFGDKRR	-0.021 ± 0.26
LCFDVSFRYYGMGYIL	0.165 ± 0.23
RSEVEFNTPHLLKCVPDMSF	0.587 ± 0.42
VLRRLRSWRKVELENNRGKM	inactive
PICANWLMHTVMINSSSGRG	0.27 ± 0.32
GMVSIII	0.276 ± 0.51
KGGSFVGLSTVQYLLASYAL	-0.153 ± 1.3

Substance	amyloid nucleation score
LMDIGPANEKFN	-1.18 ± 1.4
FNWMRP	0.706 ± 0.31
YLFRLVTVFNVVKATLVVTV	-0.289 ± 0.92
IFYIYLRGLVMIVRRSMVIR	inactive
EKELIK	1.1 ± 0.61
APRCKSIWS	-0.706 ± 0.59
FHCTNSMVMLGRHATMLFFY	5.92 ± 0.095
RLVEQFRGMLLWY	-0.673 ± 0.64
SRQRSYRDWVATFTF	-0.339 ± 0.52
IYKLLGRVKSMMFLWYTVHS	-0.527 ± 0.52
DTINAGWSHLEARCLRFLHV	-0.795 ± 0.38
MSSESLSMGRLDMG	inactive
VVATKLSV	-0.95 ± 1.4
YVLRPFGLLKWSNSVGPHER	-0.106 ± 1.2
MLLACPHLTGYGVILIASIA	-0.292 ± 0.36
GVCFLAR	0.707 ± 0.74
VVYIHFAII	0.439 ± 0.69
VVLPRLRGNLVCDEIES	2.07 ± 0.53
ILTRVV	0.37 ± 1.1
SILMWLNLARSLGTIYLLFV	0.046 ± 0.76
LHSQKGILSLSSPI	-0.223 ± 0.32
TARRKSYDIFMLIMWFVAYY	2.53 ± 0.12
GGDGVKVVIGLHGWFASGYL	1.24 ± 0.3
NVRRLIFIMLKLDAICYWSS	-0.695 ± 1.1
LYKLWQSKFTVYWLEGLTSY	inactive

Substance	amyloid nucleation score
RFFGKYSTEGLNL	0.992 ± 0.76
HKIDINSVLLLKCVVYVGCL	4.12 ± 0.066
LDQKTFWLSVPVSWQIPADM	0.477 ± 0.61
WSSTTNWMLRPFKCANRLGW	-0.529 ± 1.3
AFFSAKIKAPFNDVFGYGFV	0.289 ± 0.33
VTLPSAMQGSHFTWGPNVAF	-0.422 ± 1.2
TIALRMNRINLDFKYCFNSF	1.49 ± 0.69
DLYEAMSRNLADYRAVWGLS	inactive
ARFVDYPCALLWARTSR	-0.375 ± 0.56
WDWHIGRKWV	-0.629 ± 0.62
VISGVCFSDIFLDVPTLWLW	0.393 ± 0.3
MPTLNYIVKCSREVTGGILD	inactive
YNSVKVNRFH	1.3 ± 0.74
IPVWTYIVWAQESILQRGCW	0.217 ± 0.46
KWYNTPNSDWSV	-0.983 ± 1.7
LWSPSQ	0.202 ± 0.56
DRTLDDPGVHHASKAE	inactive
SSGAYSLSKWYQYRMFSVVL	-0.771 ± 0.66
AFSANF	0.779 ± 0.42
TVCRSLSRLERHLR	0.068 ± 0.63
TFTVAEQVALE	0.415 ± 0.47
NVQVKWGQTRVTCWDYGGEH	0.467 ± 0.34
NIASGFGFPYRGVLSC	0.184 ± 1
IVVYVCIVGNNAPSLDAKSV	0.923 ± 0.23
DGARDFRLRMLACSRLSRGI	0.053 ± 0.72

Substance	amyloid nucleation score
VYAYTRY	0.194 ± 0.68
FCFMYDGHEAWSKAFSRRNV	0.196 ± 0.3
PWCFTLFALAPP	-0.077 ± 1.7
WAAFLVMDGWICDQAYMTMR	inactive
WSVSASQFRSVPRSPFALSQ	-0.303 ± 0.26
GGKVGREQTIW	-0.123 ± 0.89
FLEKSFLCSWSLVRTEGEWA	-0.333 ± 0.57
RVWMGFDWIEDESRLDSTM	0.21 ± 0.82
NCFRLLCFRGLVGQRGL	0.141 ± 0.59
YIMSGRFTNY	2.13 ± 0.28
FLRFIRSVNFYVKEYAESLL	-0.691 ± 0.52
EAIISNCNFVIQIMCYHYTA	inactive
TGNTIAVRLLGKTNWTLIKT	-0.1 ± 0.23
SRTYFESRDFEEYRAMRPSL	inactive
PQGLTSSSMGLTSANHSAA	0.637 ± 0.88
MRGMADYC	-0.251 ± 0.88
TASGVDIVRRGCPRLVMLVV	-0.42 ± 0.43
HRSVGSRECRSSSEFYVLR	3.77 ± 0.088
YKSCCVGITPM	-0.551 ± 0.49
TIASTGVFNM	inactive
